pKd: −log10 of the molar value. Where “and” joins values, the source holds several entries; their conditions need not be identical. Equal entries are not always repeated. Where two headings read alike, the source gives them in different places.
Key:
[1] = target: soluble recombinant CD80 (sCD80), sCD80his after removal of the carboxy-terminal oligo-histidine tag (human); assay: SPR
CTLA-4 Ig (human) [2] = target: CTLA-4 Ig (human) (UniProt P16410); assay: pull-down
CD28 Ig [3] = target: CD28 Ig (UniProt P10747); assay: SPR
CTLA-4 Ig (human) [4] = target: CTLA-4 Ig (human) (UniProt P16410); assay: SPR
CD28 Ig [5] = target: CD28 Ig (UniProt P10747); assay: SPR; remark: listed apart in the source
CTLA-4 Ig (human) [6] = target: CTLA-4 Ig (human) (UniProt P16410); assay: SPR; remark: listed apart in the source
CD28 Ig [7] = target: CD28 Ig (UniProt P10747); assay: SPR; remark: listed apart in the source
CTLA-4 Ig (human) [8] = target: CTLA-4 Ig (human) (UniProt P16410); assay: SPR; remark: listed apart in the source
CD28 Ig [9] = target: CD28 Ig (UniProt P10747); assay: SPR; remark: listed apart in the source
CTLA-4 Ig (human) [10] = target: CTLA-4 Ig (human) (UniProt P16410); assay: SPR; remark: listed apart in the source

Chain of CTLA-4 Ig (P16410 37-161): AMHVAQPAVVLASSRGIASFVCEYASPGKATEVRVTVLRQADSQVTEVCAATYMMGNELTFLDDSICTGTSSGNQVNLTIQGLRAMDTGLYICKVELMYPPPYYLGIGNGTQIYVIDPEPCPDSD

CTLA-4 Ig (from UniProt P16410 37-161) (Fc fusion)
fold higher avidity than CD28 Ig [1]: > 100 fold

soluble recombinant CD80 (sCD80), sCD80his after removal of the carboxy-terminal oligo-histidine tag (domain or fragment)
proportion of sCD80 with CTLA-4-binding activity (CTLA-4 Ig (human) [2]): 100% | pKd (CD28 Ig [3]): 5.60 | pKd (CTLA-4 Ig (human) [4]): 6.59 | pKd (CD28 Ig [5]): 5.39 and 5.37 | response at 0.82 μM sCD80 (CD28 Ig 7800 RUs), beginning of the experiment (CD28 Ig [5]): 160 RU | t1/2 of dissociation (high CD28 Ig level, 40 μl/min) (CD28 Ig [5]): 0.93 s | t1/2 of dissociation (high CD28 Ig level, 80 μl/min) (CD28 Ig [5]): 0.84 s | t1/2 of dissociation (low CD28 Ig level, 40 μl/min) (CD28 Ig [5]): 0.69 s | t1/2 of dissociation (low CD28 Ig level, 80 μl/min) (CD28 Ig [5]): 0.64 s | pKd (CTLA-4 Ig (human) [6]): 6.40 | response at 0.26 μM sCD80 (CTLA-4 Ig 1,500 RUs), beginning of the experiment (CTLA-4 Ig (human) [6]): 255 RU | response at 0.26 μM sCD80 (CTLA-4 Ig 1,500 RUs), end of the experiment (CTLA-4 Ig (human) [6]): 250 RU | t1/2 of dissociation (high CTLA-4 Ig level, 20 μl/min) (CTLA-4 Ig (human) [6]): 4.8 s | t1/2 of dissociation (high CTLA-4 Ig level, 40 μl/min) (CTLA-4 Ig (human) [6]): 4.4 s | t1/2 of dissociation (low CTLA-4 Ig level, 20 μl/min) (CTLA-4 Ig (human) [6]): 2.2 s | t1/2 of dissociation (low CTLA-4 Ig level, 40 μl/min) (CTLA-4 Ig (human) [6]): 2.35 s | pKd (CD28 Ig [7]): 5.40 | pKd (CTLA-4 Ig (human) [8]): 6.38 | pKd (CD28 Ig [9]): 5.38 | pKd (CTLA-4 Ig (human) [10]): 6.42

— article PMC2196039
